From US20210017289A1 (AbbVie / Abbott, published 2021)

Legend:
293s-huOX40-muCRDI = molecular target: T1, 293s-huOX40-muCRDI; assay: flow cytometry on 293s transfectants, Hu3738 added at 2 µg/mL, Cy5 donkey anti-human IgG
T1 construct: cell-surface chimera, named on the sheet by its cell line; also called human OX40 chimera with murine CRDI replacing human CRDI
T1 receptor chain: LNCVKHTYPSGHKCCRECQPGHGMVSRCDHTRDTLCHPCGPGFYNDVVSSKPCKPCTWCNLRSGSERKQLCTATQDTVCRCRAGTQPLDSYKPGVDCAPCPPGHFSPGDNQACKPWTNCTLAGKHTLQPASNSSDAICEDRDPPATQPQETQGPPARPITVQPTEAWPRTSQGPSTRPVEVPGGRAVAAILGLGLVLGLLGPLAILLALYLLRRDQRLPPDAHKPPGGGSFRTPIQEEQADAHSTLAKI
Method: After plating cells, 50 μL of Hu3738 or isotype control antibody at 2 μg/mL were added to corresponding wells in duplicate for each cell line and allowed to incubate on ice for 30 minutes. Following incubation, 200 μL of Dulbecco's Phosphate Buffered Saline (DPBS) was added into each well and plates were spun down at 1000 rpm for three minutes. Supernatants from each well were removed and 50 μL of Cy5-Donkey anti-Human IgG (Jackson ImmunoResearch) secondary antibody was added at a 1:250 dilution, which was then incubated for 30 minutes on ice in the dark. Following the incubation period, 200 μL of DPBS was added prior to spinning down the plate at 1000 rpm for three minutes. Supernatants were removed and each well was re-suspended with 100 μL of DPBS+1% Formaldehyde. Samples were analyzed on the dual laser FACSCalibur flow cytometer (Becton Dickinson).

[1] = molecular target: T2, human OX40 expressed on cells (human, UniProt P43489 29-277); assay: flow cytometry on CD3/CD28 bead activated human CD4+ T cells
T2 construct: also called cell-surface human OX40; Jurkat-NF-κB-huOX40
T2 sequence: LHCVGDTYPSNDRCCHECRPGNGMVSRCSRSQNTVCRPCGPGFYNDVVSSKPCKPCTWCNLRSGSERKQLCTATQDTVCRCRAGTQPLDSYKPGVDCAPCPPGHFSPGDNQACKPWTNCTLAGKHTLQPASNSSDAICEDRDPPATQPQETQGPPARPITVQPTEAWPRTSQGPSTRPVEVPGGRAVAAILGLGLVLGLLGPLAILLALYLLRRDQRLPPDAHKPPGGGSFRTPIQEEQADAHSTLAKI
Method: After 24 hours, the beads were removed with a magnet. Cells were counted and resuspended to 1.5×10⁶/mL. An aliquot of the cell suspension (100 μL) was used per stain. Test antibody was titrated in a 4-fold dilution series starting at 1 μg/mL. Cells were stained for 30 minutes and washed twice. A 1:250 dilution of (4 μg/mL) of Goat anti Human Fc specific-PE/well (Jackson ImmunoResearch) was added in 100 μL/well PBS containing 1% BSA. Cells were stained for an additional 30 minutes and washed twice, transferred to tubes and acquired using the BD LSR Fortessa flow cytometer, and analyzed using FACSDiva analysis software version 8.0.1.

[2] = molecular target: T3, cynomolgus OX40 on activated cynomolgus monkey CD4+ T cells (cynomolgus monkey, UniProt P43489 29-277 (human entry)); assay: flow cytometry on PHA and IL-2 activated cynomolgus monkey CD4+ T cells
T3 chain: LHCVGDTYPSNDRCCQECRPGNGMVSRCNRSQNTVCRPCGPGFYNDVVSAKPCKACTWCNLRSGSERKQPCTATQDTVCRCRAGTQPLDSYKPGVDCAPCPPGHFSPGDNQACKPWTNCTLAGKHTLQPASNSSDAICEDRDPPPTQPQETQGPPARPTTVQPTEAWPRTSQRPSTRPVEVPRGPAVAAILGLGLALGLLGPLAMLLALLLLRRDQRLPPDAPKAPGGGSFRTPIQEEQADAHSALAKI
Method: Cynomolgus monkey whole blood was purchased from Worldwide Primates. For isolation of PBMCs, whole blood was diluted in a 1:1 ratio with PBS without magnesium and calcium (GE Healthcare). Diluted blood (30 mL) was layered under 13 mL of 95% Ficoll-Paque Plus (GE Healthcare) prepared in PBS without magnesium and calcium (GE Healthcare) in 50-mL conical tubes. The tubes were spun at 1000 g for 25 minutes. The interphase was collected and washed twice in 1×PBS. Cells were resuspended to 2×10⁶ cells/mL in RPMI/10% FBS. Cells were incubated for […] with […] phytohemagglutinin (PHA) (Sigma) and 100 U/mL recombinant human interleukin-2 (IL-2) (Proleukin®, Prometheus) in 6-well plates. After 24 hours, cells were washed, counted and resuspended to 2×10⁶/mL. 100 μL of the cells were used per stain. Test anti-OX40 antibody was titrated in a 4-fold dilution series starting at 1 μg/mL. Cells were stained for 30 minutes and washed twice. A 1:250 dilution (4 μg/mL) of Goat anti-Human IgG Fc specific-PE (Jackson ImmunoResearch) in 100 μL PBS containing 1% BSA was added per well. Cells were stained for an additional 30 minutes and washed twice, transferred to tubes and acquired using the BD LSR Fortessa flow cytometer, and analyzed using FACSDiva analysis software version 8.0.1.

B1: Hu3738 (antibody, V domains shown)
VH: EVQLVESGGGLVQPGGSLRLSCAASGFTFSRYGMSWVRQAPGKGLELVATINSNGGRTYYPDSVKGRFTISRDNAKNSLYLQMNSLRAEDTAVYYCAREGITTAYAMDYWGQGTTVTVSS
VL: DIVMTQSPDSLAVSLGERATINCKASQSVDYDGDSYMHWYQQKPGQPPKLLIYAASILESGVPDRFSGSGSGTDFTLTISSLQAEDVAVYYCQQSNEDPRTFGGGTKVEIKR
notes: Humanized antibody; also called exemplary anti-OX40 antibody Hu3738; Hu3738 VH.1b / Hu3738 VL.1
binding result (293s-huOX40-muCRDI): binds | EC50 [1]: 0.053 nM | EC50 [2]: 0.024 nM
